Substitutions are numbered along the chain they refer to.
Molecular target: T1, pKal (Homo sapiens, UniProt P03952)
T1 construct: two disulfide linked polypeptides; a heavy chain of approximately 52 kDa and a catalytic domain of approximately 34 kDa; host or cells: human plasma
Experiment: Fab fragments (small scale) tested for inhibition against human pKal in an in vitro protease cleavage assay
Type: biochemical
Conditions: Table 9
Method: By DNA sequencing, we recovered 61 of the possible 80 antibodies (Table 9). These antibodies were produced as Fab fragments in small scale (˜20 μg) and tested for inhibition against human pKal in an in vitro protease cleavage assay using Pro-Phe-Arg-aminomethylcoumarin as the synthetic peptide substrate. […] Five antibodies were then expressed in 293T cells and purified by protein A sepharose chromatography. The antibodies were analyzed by SDS-PAGE to determine which of the inhibitory mutants are not cleaved by the host cell protease(s) (data not shown).

T1 sequence (P03952 391-638 limits assumed): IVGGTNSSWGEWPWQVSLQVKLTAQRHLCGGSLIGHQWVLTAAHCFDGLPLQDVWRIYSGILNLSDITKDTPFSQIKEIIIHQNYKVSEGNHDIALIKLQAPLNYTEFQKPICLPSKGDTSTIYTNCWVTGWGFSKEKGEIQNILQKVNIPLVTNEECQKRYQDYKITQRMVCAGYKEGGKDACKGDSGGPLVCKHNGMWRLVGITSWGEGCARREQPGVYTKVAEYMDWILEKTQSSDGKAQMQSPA
T1 sequence (P03952 20-390 partner limits assumed): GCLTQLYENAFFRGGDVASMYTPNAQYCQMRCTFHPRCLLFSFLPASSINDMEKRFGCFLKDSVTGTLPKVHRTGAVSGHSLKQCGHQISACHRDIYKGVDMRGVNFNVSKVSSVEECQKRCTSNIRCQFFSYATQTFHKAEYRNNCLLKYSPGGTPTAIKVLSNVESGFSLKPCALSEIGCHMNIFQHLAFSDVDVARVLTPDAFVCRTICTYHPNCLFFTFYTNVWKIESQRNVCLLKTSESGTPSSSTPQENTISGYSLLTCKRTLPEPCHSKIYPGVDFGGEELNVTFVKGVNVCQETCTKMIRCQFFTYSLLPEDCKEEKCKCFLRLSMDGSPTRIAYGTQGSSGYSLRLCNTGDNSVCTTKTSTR

B1: X69-H10: single point mutation of M142-H08 (P1′); HV-CDR3 GGLLLWFRYLKSNYFDY (antibody, V domains shown)
VL: QDIQMTQSPSSLSAFVGDRVTITCRASQPIDNYLNWYHQKPGKAPKLLIYAASRLQSGVPSRLSGSGFGTDFTLTISSLQPEDFGNYYCQQSYTVPYTFGGGTKVEIR
VH: EVQLLESGGGLVQPGGSLRLSCAASGFTFSAYSMIWVRQAPGKGLEWVSYIRPSGGRTTYADSVKGRFTISRDNSKNTLYLQMNSLRAEDTAVYYCARGGLLLWFRYLKSNYFDYWGQGTLVTVSSASTKGPSVFPLAPSSKS
  Inhibit as a Fab?: No

B2: X68-A03: single point mutation of M142-H08 (P3); HV-CDR3 GGLLLDFRELKSNYFDY (antibody, V domains shown)
VL: B1 VL with G85S
VH: B1 VH with W104D, Y107E
  Inhibit as a Fab?: No

B3: X68-E03: single point mutation of M142-H08 (P3); HV-CDR3 GGLLLEFRELKSNYFDY (antibody, V domains shown)
VL: B1 VL
VH: B1 VH with W104E, Y107E
  Inhibit as a Fab?: No

B4: X68-A12: single point mutation of M142-H08 (P3); HV-CDR3 GGLLLGFRELKSNYFDY (antibody, V domains shown)
VL: B1 VL
VH: B1 VH with W104G, Y107E
  Inhibit as a Fab?: No

B5: X68-D11: single point mutation of M142-H08 (P3); HV-CDR3 GGLLLKFRELKSNYFDY (antibody, V domains shown)
VL: B1 VL
VH: B1 VH with W104K, Y107E
  Inhibit as a Fab?: No

B6: X68-E01: single point mutation of M142-H08 (P3); HV-CDR3 GGLLLLFRELKSNYFDY (antibody, V domains shown)
VL: B1 VL
VH: B1 VH with W104L, Y107E
  Inhibit as a Fab?: Yes

B7: X68-F05: single point mutation of M142-H08 (P3); HV-CDR3 GGLLLMFRELKSNYFDY (antibody, V domains shown)
VL: B1 VL
VH: B1 VH with W104M, Y107E
  Inhibit as a Fab?: No

B8: X68-D10: single point mutation of M142-H08 (P3); HV-CDR3 GGLLLPFRELKSNYFDY (antibody, V domains shown)
VL: B1 VL
VH: B1 VH with W104P, Y107E
  Inhibit as a Fab?: No

B9: X68-F10: single point mutation of M142-H08 (P3); HV-CDR3 GGLLLQFRELKSNYFDY (antibody, V domains shown)
VL: B1 VL
VH: B1 VH with W104Q, Y107E
  Inhibit as a Fab?: No

B10: X68-G01: single point mutation of M142-H08 (P3); HV-CDR3 GGLLLRFRELKSNYFDY (antibody, V domains shown)
VL: B1 VL
VH: B1 VH with W104R, Y107E
  Inhibit as a Fab?: No

B11: X68-G05: single point mutation of M142-H08 (P3); HV-CDR3 GGLLLSFRELKSNYFDY (antibody, V domains shown)
VL: B1 VL
VH: B1 VH with T78I, W104S, Y107E
  Inhibit as a Fab?: No

B12: X68-F12: single point mutation of M142-H08 (P3); HV-CDR3 GGLLLTFRELKSNYFDY (antibody, V domains shown)
VL: B1 VL
VH: B1 VH with W104T, Y107E
  Inhibit as a Fab?: No

B13: X68-H04: single point mutation of M142-H08 (P3); HV-CDR3 GGLLLVFRELKSNYFDY (antibody, V domains shown)
VL: B1 VL
VH: B1 VH with W104V, Y107E
  Inhibit as a Fab?: No

B14: X67-G01: single point mutation of M142-H08 (P2); HV-CDR3 GGLLLWCRELKSNYFDY (antibody, V domains shown)
VL: B1 VL
VH: B1 VH with F105C, Y107E
  Inhibit as a Fab?: No

B15: X67-E04: single point mutation of M142-H08 (P2); HV-CDR3 GGLLLWDRELKSNYFDY (antibody, V domains shown)
VL: B1 VL
VH: B1 VH with F105D, Y107E
  Inhibit as a Fab?: Yes

B16: X67-H04: single point mutation of M142-H08 (P2); HV-CDR3 GGLLLWERELKSNYFDY (antibody, V domains shown)
VL: B1 VL
VH: B1 VH with F105E, Y107E
  Inhibit as a Fab?: Yes

B17: X67-C09: single point mutation of M142-H08 (P2); HV-CDR3 GGLLLWGRELKSNYFDY (antibody, V domains shown)
VL: B1 VL
VH: B1 VH with F105G, Y107E
  Inhibit as a Fab?: Yes

B18: X67-B04: single point mutation of M142-H08 (P2); HV-CDR3 GGLLLWKRELKSNYFDY (antibody, V domains shown)
VL: B1 VL
VH: B1 VH with F105K, Y107E
  Inhibit as a Fab?: Yes

B19: X67-G09: single point mutation of M142-H08 (P2); HV-CDR3 GGLLLWLRELKSNYFDY (antibody, V domains shown)
VL: B1 VL
VH: B1 VH with F105L, Y107E
  Inhibit as a Fab?: Yes

B20: X67-B05: single point mutation of M142-H08 (P2); HV-CDR3 GGLLLWPRELKSNYFDY (antibody, V domains shown)
VL: B1 VL
VH: B1 VH with F105P, Y107E
  Inhibit as a Fab?: No

B21: X67-G05: single point mutation of M142-H08 (P2); HV-CDR3 GGLLLWRRELKSNYFDY (antibody, V domains shown)
VL: B1 VL
VH: B1 VH with F105R, Y107E
  Inhibit as a Fab?: Yes

B22: X67-B03: single point mutation of M142-H08 (P2); HV-CDR3 GGLLLWSRELKSNYFDY (antibody, V domains shown)
VL: B1 VL
VH: B1 VH with F105S, Y107E
  Inhibit as a Fab?: Yes

B23: X67-F10: single point mutation of M142-H08 (P2); HV-CDR3 GGLLLWTRELKSNYFDY (antibody, V domains shown)
VL: B1 VL
VH: B1 VH with F105T, Y107E
  Inhibit as a Fab?: Yes

B24: X67-H01: single point mutation of M142-H08 (P2); HV-CDR3 GGLLLWWRELKSNYFDY (antibody, V domains shown)
VL: B1 VL
VH: B1 VH with F105W, Y107E
  Inhibit as a Fab?: Yes

B25: X67-F08: single point mutation of M142-H08 (P2); HV-CDR3 GGLLLWYRELKSNYFDY (antibody, V domains shown)
VL: B1 VL
VH: B1 VH with F105Y, Y107E
  Inhibit as a Fab?: Yes

B26: X66-E09: single point mutation of M142-H08 (P1); HV-CDR3 GGLLLWFAELKSNYFDY (antibody, V domains shown)
VL: B1 VL
VH: B1 VH with R106A, Y107E
  Inhibit as a Fab?: No

B27: X66-B05: single point mutation of M142-H08 (P1); HV-CDR3 GGLLLWFCELKSNYFDY (antibody, V domains shown)
VL: B1 VL
VH: B1 VH with R106C, Y107E
  Inhibit as a Fab?: No

B28: X66-D03: single point mutation of M142-H08 (P1); HV-CDR3 GGLLLWFEELKSNYFDY (antibody, V domains shown)
VL: B1 VL
VH: B1 VH with R106E, Y107E
  Inhibit as a Fab?: No

B29: X66-H04: single point mutation of M142-H08 (P1); HV-CDR3 GGLLLWFFELKSNYFDY (antibody, V domains shown)
VL: B1 VL
VH: B1 VH with R106F, Y107E
  Inhibit as a Fab?: No
